# The DeepSol protein solubility set
# Test: soluble on expression in E. coli; label from the status in PepcDB or PDB records
row,Sequence,soluble on expression in E. coli
1,MGSDKIHHHHHHMNNIFLILGCAKQRWQDLEIICEYVKKTYSLTTMLMVNKAHKEFYSVCDQVIEVDLSDQNFIALASRLLSEQKVSGGLLFADQALLHGTKLFEQLGIVCDNSELGINSYSKLEFRRQEKRYFSHAAKTHYFVPEFSKVNSLQDVHAFAVKYPDGFILKPISEGGSRGVLKLHAQSDFGAAYKQVECYQADGLMCEQLIPTFREFSFDGVGDISFITEKLVATGAHPVEVGQIVPAELTCDSAEKISAHGRLMNLWVGQQLGAFHNEIAYLESQGSTAAIESNRRSGGMGIWNLAEKVFGENLFHRWVDVAMGQTVEHIPLNATGKAMSCMLGSRENLIDDLTMITAQIQEVLAFELGPDIELFSLRWLHTQPHMLPSIPQSNFDFLAEACIYCAHFDLSNQALYERVQRAWDKCLYIGMKEEKCA,not soluble
2,MFTGSIVALVTPMDEKGNVSRSCLKKLIDYHVANGTSAIVSVGTTGESATLSHDEHGDVVMMTLELADGRIPVIAGTGANATAEAISLTQRFNDSGIVGCLTVTPYYNRPTQEGLFQHFKAIAEHTDLPQILYNVPSRTGCDMLPETVGRLAEIKNIIAIKEATGNLTRVHQIKELVSDDFILLSGDDASALDFMQLGGHGVISVTANVAAREMADMCKLAAEGQFAEARAINQRLMPLHNKLFVEPNPIPVKWACKALGLVATDTLRLPMTPITDHGRDIVKAALQHAGLL,not soluble
3,MAENKLGRDIPRKYANQYGVFEGELAHIKSYKESSRQVKPVKPSDDKLLSSIHEAIEKTRLKDGMTISFHHHFREGDYVMNMVLDEIAKMGIKDISIAPSSIANVHEPLIDHIKNGVVTNITSSGLRDKVGAAISEGIMENPVIIRSHGGRARAIATDDIHIDVAFLGAPSSDAYGNANGTRGKTTCGSLGYAMIDAKYADQVVIVTDTLVPYPNTPISIPQTDVDYIVVVDAIGDPEGIAKGATRYTKNPKELLIAEYAAKVITSSPYYKEGFSFQTGTGGASLAVTRFMREQMIKDDIKANFALGGITNAMVELLEEGLVDKILDVQDFDHPSAVSLDRNAEKHYEIDANMYASPLSKGSVINQLDICVLSALEVDTNFNVNVMTGSDGVIRGASGGHCDTAFAAKMSLVISPLVRGRIPTFVDKVNTVITPGTSVDVVVTEVGIAINPNRPDLIEYFKDLKVPQLTIEELKEKAYAIVGNPQPIQYGDKIVALIEYRDGSLIDVVRNVLEHHHHHH,soluble
4,MSLKTKLIVVLGPTAVGKTALGIKLAQQFHGEIISGDSQQVYRKLDIGTAKATAAEQAAVPHHLIDVREVDENYSAFDFVQEATKEIANICARGYLPIIVGGTGLYLQSLLEGYHLGGQVDHEAVLAYRRELETLSDTELSQLVETKQIVMTEPNRRRLMRSLELHKFSQGVQNQGSPYDVLLIGLNDNRQDLYERINARVDKMMAAGLLDEAKWLYDNYPHAQATRGIGYKELFPYFAGDIGLEEAVEKIKQNTRRFAKRQLTWFKNRMAVSFYSVSDSDYKGKINQAVVDFLRNEGHHHHHH,soluble
5,MQANSEEYCELCGSQIRGKGITVSYEGSIITVCNSCYDRIRKHAVIVKADSKKSETRKKATLKPPKMENAELEIVTDYYKIIKTAREQLGISQQQLAQKLKVSENIVKRFESGKLKPTISQARQLEKILGIKLVTPLENNEESEKEFDDTGLTLGDVVNIKEGKK,not soluble
6,MAPKVFYISDGTAITAEVFGHAVLSQFPLEFESLTIPFVETLAKAENVKRQINDCFITTGERPLVFHSIVKPEIRDIIYSSEGLDYDFLNTFVAPLEQHLGVSASPVLHRTHGKANQGYEARIDAINFAMDNDDGQTMKHMDQADLILLGVSRCGKTPSSLYLSMQFGIKAANYPFTEDDMDNLKLPEALKRNKKKLFGLTIDPVRLHEIRQSRMENSRYSSLKQCRLEVKEVEMMFKRERIPYIDTTNHSVEEIATKILDVTGLERHMFMAGDPLEHHHHHH,soluble
7,MKYTEIMVRYGELSTKGKNRKTFIMQLAQNVKRALADFPALKIHADRDRMHILLNGEDSEEVIPKLSKVFGIQNFSPSIRIEKEMPAIRAMVQEVVREVYTPGKTFKITAKRSDHSFELDSNGLNQELGGAVIEAIPEIQVQMKKPDINLRIEIRKDAAYLSYETIRGAGGLPVGTSGRGMLMLSGGIDSPVAGYLAMKRGVEVEAVHFASPPYTSEQALQKAKDLAEKLVPYVGTIQFIEVPFTEIQEEIKRVVPQGYLMTITRRLMLRLTDAIREMRKGLVIINGESLAQVASQTLQSMVAINEVTSTPIIRPVVSMDKTEIIEIAEKIDTFELAIQPFEDCCTIFAPPQPKTRPRLDKAQEYEARLDLEGLMARALEGLKITEISAETAKDKQEDEFADFL,not soluble
